B1: IV-H4: FL#62-derived P450 variant (SEQ ID NO. 9), 7(S)-hydroxylating (protein)
chain: MTIKEMPQPKTFGELKNLPLLNTDKPVQALMKIADELGEIFKFEAPGRVTRYLSSQRLIKEACDESRFDKNLSQALKFSRDVAGDGLATSWTHEKNWKKAHNILLPSFSQQAMKGYHAMMVDIAVQLVQKWERLNADEHIEVSEDMTRLTLDTIGLCGFNYRFNSFYRDQPHPFIISMVRTLDEVMNKLQRANPDDPVYDENKRQCQEDIKVMNDLVDKIIADRKARGEQSDDLLTQMLNGKDPETGEPLDDGNISYQIITFLIAGHETTSGLLSFALYFLVKNPHVLQKVAEEAARVLVDPVPSYKQVKQLKYVGMVLNEALRLWPTAPAFSLYAKEDTVLGGEYPLEKGDEVMVLIPQLHRDKTIWGDDVEEFRPERFENPSAIPQHAFKPFGNGQRACIGQQFALHEATLVLGMMLKHFDFEDHTNYELDIKETLTLKPEGFVVKAKSKKIPLGGIPSPSTEQSAKKVRKKAENAHNTPLLVLYGSNMGTAEGTARDLADIAMSKGFAPQVATLDSHAGNLPREGAVLIVTASYNGHPPDNAKQFVDWLDQASADEVKGVRYSVFGCGDKNWATTYQKVPAFIDETLAAKGAENIADRGEADASDDFEGTYEEWREHMWSDVAAYFNLDIENSEDNKSTLSLQFVDSAADMPLAKMHGAFSTNVVASKELQQPGSARSTRHLEIELPKEASYQEGDHLGVIPRNYEGIVNRVTARFGLDASQQIRLEAEEEKLAHLPLAKTVSVEELLQYVELQDPVTRTQLRAMAAKTVCPPHKVELEALLEKQAYKEQVLAKRLTMLELLEKYPACEMKFSEFIALLPSIRPRYYSISSSPRVDEKQASITVSVVSGEAWSGYGEYKGIASNYLAELQEGDTITCFISTPQSEFTLPKDPETPLIMVGPGTGVAPFRGFVQARKQLKEQGQSLGEAHLYFGCRSPHEDYLYQEELENAQSEGIITLHTAFSRMPNQPKTYVQHVMEQDGKKLIELLDQGAHFYICGDGSQMAPAVEATLMKSYADVHQVSEADARLWLQQLEEKGRYAKDVWAG
B2: II-H10: FL#62-derived P450 variant (SEQ ID NO. 11), 7(R)-hydroxylating (protein)
chain: B1 chain with S79N, V82F, A83T, A88F, L182F, V185T
B3: II-E2: FL#62-derived P450 variant (SEQ ID NO. 13) (protein)
chain: B1 chain with S79N, V82F
B4: V-H2: FL#62-derived P450 variant (SEQ ID NO. 10) (protein)
chain: B1 chain with V82I
B5: X-E12: II-E2-derived P450 variant (SEQ ID NO. 14), 6a-hydroxylating (protein)
chain: B1 chain with A75V, S79N, V82F, L182A, V185T
B6: FL#62: CYP102A1-derived engineered P450 variant (SEQ ID NO. 8) (protein)
chain: B1 chain with S79A, V82S, A83V
B7: X-F11: II-E2-derived P450 variant (SEQ ID NO. 15), 6a-hydroxylating (protein)
chain: B1 chain with A75T, S79N, V82F, T181A, V185S
B8: III-B1: FL#62-derived P450 variant (SEQ ID NO. 12) (protein)
chain: B1 chain with S79F, V82F
B9: CYP102A1: naturally occurring wild-type cytochrome P450 CYP102A1 from Bacillus megaterium (SEQ ID NO.: 1) (protein, listed as Bacillus megaterium)
chain: MTIKEMPQPKTFGELKNLPLLNTDKPVQALMKIADELGEIFKFEAPGRVTRYLSSQRLIKEACDESRFDKNLSQALKFVRDFAGDGLFTSWTHEKNWKKAHNILLPSFSQQAMKGYHAMMVDIAVQLVQKWERLNADEHIEVPEDMTRLTLDTIGLCGFNYRFNSFYRDQPHPFITSMVRALDEAMNKLQRANPDDPAYDENKRQFQEDIKVMNDLVDKIIADRKASGEQSDDLLTHMLNGKDPETGEPLDDENIRYQIITFLIAGHETTSGLLSFALYFLVKNPHVLQKAAEEAARVLVDPVPSYKQVKQLKYVGMVLNEALRLWPTAPAFSLYAKEDTVLGGEYPLEKGDELMVLIPQLHRDKTIWGDDVEEFRPERFENPSAIPQHAFKPFGNGQRACIGQQFALHEATLVLGMMLKHFDFEDHTNYELDIKETLTLKPEGFVVKAKSKKIPLGGIPSPSTEQSAKKVRKKAENAHNTPLLVLYGSNMGTAEGTARDLADIAMSKGFAPQVATLDSHAGNLPREGAVLIVTASYNGHPPDNAKQFVDWLDQASADEVKGVRYSVFGCGDKNWATTYQKVPAFIDETLAAKGAENIADRGEADASDDFEGTYEEWREHMWSDVAAYFNLDIENSEDNKSTLSLQFVDSAADMPLAKMHGAFSTNVVASKELQQPGSARSTRHLEIELPKEASYQEGDHLGVIPRNYEGIVNRVTARFGLDASQQIRLEAEEEKLAHLPLAKTVSVEELLQYVELQDPVTRTQLRAMAAKTVCPPHKVELEALLEKQAYKEQVLAKRLTMLELLEKYPACEMKFSEFIALLPSIRPRYYSISSSPRVDEKQASITVSVVSGEAWSGYGEYKGIASNYLAELQEGDTITCFISTPQSEFTLPKDPETPLIMVGPGTGVAPFRGFVQARKQLKEQGQSLGEAHLYFGCRSPHEDYLYQEELENAQSEGIITLHTAFSRMPNQPKTYVQHVMEQDGKKLIELLDQGAHFYICGDGSQMAPAVEATLMKSYADVHQVSEADARLWLQQLEEKGRYAKDVWAG
B10: FL#41: CYP102A1-derived engineered P450 variant (SEQ ID NO. 4) (protein)
chain: B9 chain with F88A

Where a chain is given by its changes, count along the chain named. Several values for one entry are separate records, joined by “and”; a condition that tells them apart may be missing. Equal entries are not always repeated.

Assay in the first series: not given
Type of series: biochemical. The conditions noted are these: 250 μM artemisinin, rates measured over initial 30 seconds. Here is the method: Measurement of Product Formation Rates and Coupling Efficiency.
Initial product formation rates were measured from 1 mL-scale reactions containing 250 μM artemisinin, 0.1-0.5 μM purified P450, and 200 μM NADPH in potassium phosphate buffer (50 mM, pH 8.0) at room temperature. After 30 seconds, the samples were extracted with dichloromethane and subjected to benzoyl chloride derivatization followed by HPLC analysis as described above. Cofactor oxidation rate in the presence of artemisinin was measured by monitoring NADPH depletion at 340 nm (ε=6.22 mM^−1 cm^−1) using 0.1 μM purified P450, 250 μM artemisinin, and 200 μM NADPH. Coupling efficiency was calculated from the ratio between the initial product formation rate and the initial NADPH oxidation rate. Reported mean and standard deviation values were calculated from experiments performed at least in triplicate.
Turning to B1, the Product formation rate is 100 ± 4 Mole product per mole P450 per minute.

As to B2, the Product formation rate was 32 ± 2 Mole product per mole P450 per minute.

With B3, the Product formation rate is on record as 148 ± 3 Mole product per mole P450 per minute.

For the molecule B4, the Product formation rate is on record as 41 ± 2 Mole product per mole P450 per minute.

Turning to B5, the Product formation rate was 72 ± 3 Mole product per mole P450 per minute.

On to B6, for which the Product formation rate is 316 ± 20 Mole product per mole P450 per minute.

In the case of B7, the Product formation rate was 56 ± 2 Mole product per mole P450 per minute.

Take B8: the Product formation rate is recorded as 72 ± 2 Mole product per mole P450 per minute.

A further series in a line: KD for artemisinin binding to P450 variants (heme spin-shift titration). The conditions noted are these: binding of artemisinin to 3 μM purified P450, pH 8.0. How it is done: Determination of KD Values for Artemisinin Binding.
Binding experiments were performed using 3 μM purified P450 in potassium phosphate buffer (50 mM, pH 8.0) by titrating increasing amounts of artemisinin (5 μM to 1 mM) from an ethanol stock solution (50 mM). At each concentration, a difference spectrum from 350 to 500 nm was recorded and binding curves were generated by plotting the change in absorbance at 390 nm and 420 nm corresponding to the high-spin and low-spin state of the enzyme, respectively, against the artemisinin concentration. KD values were calculated using Sigma Plot via non-linear fitting of the experimental binding curves to an equation describing a standard 1:1 binding interaction. Reported mean and standard deviation values were calculated from experiments performed at least in triplicate.
Regarding B1, the Kd came to 53 ± 11 µM.

For the molecule B2, the Kd is 61 ± 2 µM.

Consider B3, for which the dissociation constant Kd came to 164 ± 18 µM.

For the molecule B4, the Kd turned out to be 45 ± 10 µM.

With B5, the Kd worked out at 300 ± 24 µM.

For B6, the Kd was 29 ± 5 µM.

B7: the Kd came to 234 ± 29 µM.

For the molecule B8, the Kd came out at 38 ± 2 µM.

A short description of a further series: Total turnovers and regio-/stereoselectivity of P450 variants in artemisinin hydroxylation (analytical scale). The note with it: artemisinin as substrate. Type of series: biochemical. Here is the method: Determination of Total Turnovers and Regio- and Stereoselectivity of the P450 Variants.
After 12 hours, 9-fluorenone was added to the mixtures as internal standard. The hydroxylation products were functionalized with benzoyl chloride followed by HPLC analysis. TTN values were calculated based on the total amount of hydroxylated products in the reactions as quantified based on the calibration curves generated using purified 2-4. The enzyme regio- and stereoselectivity was determined based on the area under the curve of the chromatographic peaks corresponding to the hydroxylation products 2, 3, and 4. Mean and standard deviation values reported for P450 variants in Table 1 were calculated from experiments performed at least in triplicate.
Turning to B1, the “(S)-stereoselectivity for C7 hydroxylation” value is on record as > 99.9% and the “regioselectivity for C7 hydroxylation” value is given as > 99.9%.

With B3, the “regioselectivity toward 6a-hydroxylation” value was determined as 48%.

On to B5, for which the “regioselectivity toward 6a-hydroxylation” value was 94%.

As for B6, the “regioselectivity toward 6a-hydroxylation” value was found to be 7%.

Consider B7, for which the “regioselectivity toward 6a-hydroxylation” value was 92%.

The same series, now with this note: share of 6a-hydroxy-ART (4); 0.5 mM artemisinin, 0.5-1 μM P450, 12 hours.
B1: the “Product distribution (%) 4” value is 0%.

On to B2, for which the “Product distribution (%) 4” value is 0%.

In the case of B3, the “Product distribution (%) 4” value was 48%.

For the molecule B4, the “Product distribution (%) 4” value was 4%.

As to B5, the “Product distribution (%) 4” value was found to be 94%.

With B6, the “Product distribution (%) 4” value was 7%.

Take B7: the “Product distribution (%) 4” value amounted to 92%.

Regarding B8, the “Product distribution (%) 4” value is given as 0%.

Staying with this series, now noted: share of 7(R)-hydroxy-ART (3); 0.5 mM artemisinin, 0.5-1 μM P450, 12 hours.
As to B1, the “Product distribution (%) 3” value is 0%.

B2: the “Product distribution (%) 3” value is reported as 100%.

As for B3, the “Product distribution (%) 3” value was determined as 30%.

For the molecule B4, the “Product distribution (%) 3” value stood at 0%.

With B5, the “Product distribution (%) 3” value stood at 2%.

For the molecule B6, the “Product distribution (%) 3” value was determined as 10%.

Regarding B7, the “Product distribution (%) 3” value came to 8%.

In the case of B8, the “Product distribution (%) 3” value is 81%.

Still in this series, the particulars now being: share of 7(S)-hydroxy-ART (2); 0.5 mM artemisinin, 0.5-1 μM P450, 12 hours.
Take B1: the “Product distribution (%) 2” value was 100%.

B2: the “Product distribution (%) 2” value came out at 0%.

Turning to B3, the “Product distribution (%) 2” value is listed as 22%.

On to B4, for which the “Product distribution (%) 2” value amounted to 96%.

For B5, the “Product distribution (%) 2” value is on record as 4%.

As to B6, the “Product distribution (%) 2” value is on record as 83%.

As to B7, the “Product distribution (%) 2” value is listed as 0%.

Turning to B8, the “Product distribution (%) 2” value worked out at 19%.

Still in this series, the particulars now being: total turnovers on artemisinin, NADPH cofactor regeneration system, analytical scale.
For B1, the TTN is 362 and 362 ± 15.

The molecule B2 returned a TTN of 270 ± 8.

As for B3, the TTN is 393 and 393 ± 25.

Molecule B4 had a TTN of 434 ± 21.

B5: the TTN is 113 and 113 ± 12.

B7 displayed a TTN of 376 ± 19.

On to B8, for which the TTN stood at 403 ± 17.

In the case of B9, the TTN is < 1.

On to B10, for which the TTN result is “about 50”.

As usually defined, the Kd is the equilibrium constant for the complex coming apart.

Values taken from patent US10544159B2, “Artemisinin derivatives, methods for their preparation and their use as antimalarial agents” (priority 2012, dated 2020).
